B1: serine hydroxymethyltransferase, cytosolic (SHMT1), as used in MST (enzyme, UniProt P34896 1-483, looked up)
chain: MTMPVNGAHKDADLWSSHDKMLAQPLKDSDVEVYNIIKKESNRQRVGLELIASENFASRAVLEALGSCLNNKYSEGYPGQRYYGGTEFIDELETLCQKRALQAYKLDPQCWGVNVQPYSGSPANFAVYTALVEPHGRIMGLDLPDGGHLTHGFMTDKKKISATSIFFESMPYKVNPDTGYINYDQLEENARLFHPKLIIAGTSCYSRNLEYARLRKIADENGAYLMADMAHISGLVAAGVVPSPFEHCHVVTTTTHKTLRGCRAGMIFYRKGVKSVDPKTGKEILYNLESLINSAVFPGLQGGPHNHAIAGVAVALKQAMTLEFKVYQHQVVANCRALSEALTELGYKIVTGGSDNHLILVDLRSKGTDGGRAEKVLEACSIACNKNTCPGDRSALRPSGLRLGTPALTSRGLLEKDFQKVAHFIHRGIELTLQIQSDTGVRATLKEFKERLAGDKYQAAVQALREEVESFASLFPLPGLPDF
modifications: fluorescently labeled in the SHMT-TS titration only; unlabeled titrant in the other MST experiments
notes: cytosolic serine hydroxymethyltransferase (SHMT1); Same preparation as m1; source: recombinant, overexpressed, purified (Ni-NTA, dialysis)
B2: serine hydroxymethyltransferase, cytosolic (SHMT1), His-tagged, immobilised in QCM-D (enzyme, UniProt P34896 1-483, looked up)
chain: MTMPVNGAHKDADLWSSHDKMLAQPLKDSDVEVYNIIKKESNRQRVGLELIASENFASRAVLEALGSCLNNKYSEGYPGQRYYGGTEFIDELETLCQKRALQAYKLDPQCWGVNVQPYSGSPANFAVYTALVEPHGRIMGLDLPDGGHLTHGFMTDKKKISATSIFFESMPYKVNPDTGYINYDQLEENARLFHPKLIIAGTSCYSRNLEYARLRKIADENGAYLMADMAHISGLVAAGVVPSPFEHCHVVTTTTHKTLRGCRAGMIFYRKGVKSVDPKTGKEILYNLESLINSAVFPGLQGGPHNHAIAGVAVALKQAMTLEFKVYQHQVVANCRALSEALTELGYKIVTGGSDNHLILVDLRSKGTDGGRAEKVLEACSIACNKNTCPGDRSALRPSGLRLGTPALTSRGLLEKDFQKVAHFIHRGIELTLQIQSDTGVRATLKEFKERLAGDKYQAAVQALREEVESFASLFPLPGLPDF
notes: cytosolic serine hydroxymethyltransferase (SHMT1); Purified and stored with 50 uM pyridoxal phosphate; Captured by its His tag on the QSX340 sensor; also called His-tagged SHMT; His-tagged SHMT1; source: recombinant, overexpressed, purified (Ni-NTA, dialysis)

What all share (conditions): both partners purified
The target in assay [1] is T1, labeled DHFR with a constant concentration of TS (9.0 uM), MST tri-complex assay ( | human, UniProt P00374 1-187; P04818 1-313, fluorescently labeled (dye and site not stated)).
T1 construct: dihydrofolate reductase (DHFR); human thymidylate synthase (TS); A mixture at constant concentrations, not a purified complex; also called DHFR/TS; source: purified recombinant proteins mixed: constant labeled DHFR and 9.0 uM TS
T1 sequence (P04818 whole entry, one chain of several): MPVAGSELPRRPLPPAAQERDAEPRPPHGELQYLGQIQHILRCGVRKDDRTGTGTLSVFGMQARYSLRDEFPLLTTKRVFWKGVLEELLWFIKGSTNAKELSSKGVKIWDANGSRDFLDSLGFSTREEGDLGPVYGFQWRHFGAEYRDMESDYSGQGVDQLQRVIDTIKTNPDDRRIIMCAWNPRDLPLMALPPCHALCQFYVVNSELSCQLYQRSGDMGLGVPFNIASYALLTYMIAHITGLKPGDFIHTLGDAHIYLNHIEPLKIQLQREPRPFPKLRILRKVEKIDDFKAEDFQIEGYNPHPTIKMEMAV
As to the kind of experiment: MST; tri-complex: constant labeled DHFR and TS or pTS (9.0 uM), SHMT titrated 157 uM-4.79 nM; Kd model fit.

For assay [2], the target named is T2, labeled DHFR with a constant concentration of pTS (9.0 uM), MST tri-complex assay ( | human, UniProt P00374 1-187); P04818 1-313, fluorescently labeled (dye and site not stated) | phosphorylated in vitro by CK2alpha; residue not stated for this preparation (the introduction names serine 124 as the site of CK2-mediated …).
T2 construct: dihydrofolate reductase (DHFR); human thymidylate synthase (TS); A mixture at constant concentrations, not a purified complex; also called DHFR/pTS; source: purified recombinant proteins mixed: constant labeled DHFR and 9.0 uM pTS
T2 sequence (P04818 whole entry, one chain of several): as above
The description is as above.

Assay [3] addresses T3, mixture of DHFR and pTS introduced together in the three-protein QCM-D assay ( | human, UniProt P00374 1-187; P04818 1-313, phosphorylated in vitro by CK2alpha; residue not stated for this preparation (the introduction names serine 124 as the site of CK2-mediated phosphorylation of human TS)).
T3 construct: dihydrofolate reductase (DHFR); human thymidylate synthase (TS); A mixture, not a purified preformed complex; only the DHFR concentration was varied; also called DHFR/pTS; fixed pTS and variable DHFR; source: purified recombinant proteins mixed: pTS fixed at 1.0 uM, DHFR 0.25-2.0 uM
As to the kind of experiment: QCM-D (quartz crystal microbalance with dissipation monitoring); three proteins: 5 uM His-tagged SHMT1 immobilised on the sensor; mixture of fixed pTS (1.0 uM) and DHFR 0.25-2.0 uM introduced; 20 mM Tris-HCl pH 7.6, 100 mM (salt not given), 10 mM MgCl2, 0.05% Tween 20, 25 C, 200 ul/min; Langmuir isotherm fit.

The target in assay [4] is B2. As to the kind of experiment: QCM-D (quartz crystal microbalance with dissipation monitoring); two proteins: 5 uM His-tagged SHMT immobilised on His-tag capturing sensor QSX340; tagless ligand introduced (0.1-1.0 uM or 0.5-7.0 uM for TS, pTS or DHFR); 20 mM Tris-HCl pH 7.6, 100 mM (salt not given), 10 mM MgCl2, 0.05% Tween 20, 25 C, 200 ul/min; Langmuir isotherm fit.
The target of assay [5] is B1. As to the kind of experiment: MST; two proteins in solution, Premium capillaries: labeled DHFR with SHMT 157 uM-4.79 nM; labeled SHMT with TS 62.0 uM-1.9 nM; labeled pTS with SHMT 157 uM-4.79 nM; Kd model fit.

T3 sequence (P04818 whole entry, one chain of several): as above

Usually Kd stands for the free concentration of one partner at which half of the binding sites on the other are occupied at equilibrium, for simple one-to-one binding. With B1, the Kd in assay [1] is 5.04 ± 0.5 µM; in assay [2], 0.32 ± 0.05 µM. With B2, the Kd in assay [3] is 0.28 ± 0.23 µM.

B3: dihydrofolate reductase (DHFR), tagless ligand in QCM-D (enzyme, UniProt P00374 1-187, looked up)
chain: MVGSLNCIVAVSQNMGIGKNGDLPWPPLRNEFRYFQRMTTTSSVEGKQNLVIMGKKTWFSIPEKNRPLKGRINLVLSRELKEPPQGAHFLSRSLDDALKLTEQPELANKVDMVWIVGGSSVYKEAMNHPGHLKLFVTRIMQDFESDTFFPEIDLEKYKLLPEYPGVLSDVQEEKGIKYKFEVYEKND
notes: dihydrofolate reductase (DHFR); source: recombinant, overexpressed and purified as described previously (Antosiewicz et al., 2015; Skierka et al., 2019); His tag removed with Thrombin CleanCleave Kit
For the molecule B3, the equilibrium dissociation constant (Kd) in assay [4] was 12.1 ± 7.86 µM.

B4: dihydrofolate reductase (DHFR), fluorescently labeled, as used in MST (enzyme, UniProt P00374 1-187, looked up)
chain: MVGSLNCIVAVSQNMGIGKNGDLPWPPLRNEFRYFQRMTTTSSVEGKQNLVIMGKKTWFSIPEKNRPLKGRINLVLSRELKEPPQGAHFLSRSLDDALKLTEQPELANKVDMVWIVGGSSVYKEAMNHPGHLKLFVTRIMQDFESDTFFPEIDLEKYKLLPEYPGVLSDVQEEKGIKYKFEVYEKND
modifications: fluorescently labeled (dye and site not stated)
notes: dihydrofolate reductase (DHFR); also called labeled DHFR; source: recombinant, overexpressed and purified as described previously (Antosiewicz et al., 2015; Skierka et al., 2019)
Consider B4, for which binding in assay [5] was characterised by a dissociation constant (Kd) of 12.6 ± 0.66 µM.

Source of the values: paper PMC8914513, “Inhibition of Protein Kinase CK2 Affects Thymidylate Synthesis Cycle Enzyme Level and Distribution in Human Cancer Cells” (Frontiers in Molecular Biosciences, 2022).
